For data set [1], the target named is recombinant epithelial glycoprotein-2 (EGP-2) (human) (UniProt P16422). Kind of data set: SPR; BIAcore; EGP-2 covalently coupled to a CM-5 sensorchip (350 RU, 'low-density' surface); antibody (at 200 nM) or antibody fragment flowed at 5 ul/min; koff fitted on t = 315-320 s (MOC-31 whole antibody: average of three fittings); kon from Ks against antibody concentration; room temperature; apparent values for the bivalent antibodies. (In general: In SPR one partner is held on a chip, and binding of the other changes the refractive index at the surface.)

The target in data set [2] is T1, recombinant epithelial glycoprotein-2 (EGP-2) (human, UniProt P16422).
T1 construct: epithelial glycoprotein-2 (EGP-2, Ep-CAM), human; recombinant, expressed in the baculovirus system as described by Strassburg et al 1992 and Helfrich et al 1994; also called CO17-1A antigen; KSA; source: baculovirus system, purified; gift of Professor D Herlyn (the Wistar Institute)
Described as above. Particulars: both partners purified.

For data set [3], the target named is T1, recombinant epithelial glycoprotein-2 ….
Target sequence in this assay (P16422 24-265): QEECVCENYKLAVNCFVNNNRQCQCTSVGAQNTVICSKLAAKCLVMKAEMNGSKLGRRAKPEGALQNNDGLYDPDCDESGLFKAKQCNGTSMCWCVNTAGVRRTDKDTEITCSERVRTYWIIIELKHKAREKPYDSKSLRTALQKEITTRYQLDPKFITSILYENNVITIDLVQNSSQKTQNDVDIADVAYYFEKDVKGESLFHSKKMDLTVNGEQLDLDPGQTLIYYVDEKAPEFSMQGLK
Data set [4] concerns the molecule itself. The data set is described as follows: SEC; gel filtration (Superdex column) of the IMAC-purified scFv preparations; monomeric and dimeric forms separated. For orientation: In gel filtration, larger molecules generally elute earlier.

What is called koff is a measure of how fast the partners let go of each other. Usually kon stands for the rate constant with which the complex forms.

For the molecule MOC-31 whole antibody, in data set [1], the Ka was determined as 4.24e+08 M⁻¹, the dissociation rate constant (koff) came out at 5e-05 s⁻¹, the kon came out at 106000 M⁻¹ s⁻¹ and the t1/2 was 231 min.

B1: 323/A3 antibody (antibody, V domains shown)
VH: QIQLVQSGPELKKPGETVKISCKASGYTFTNYGMNWVRQASGEGLKWMGWINTYTGEPTYGEDFKGRFAFSLETSASTAYLQINNLKNEDTATYFCARFGNYVDYWGQGTTLTVSS
VL: DIVMTQAAFSNPVTLGTSASISCRSSKNLLHSNGITYLYWYLQKPGQSPHLLIYQMSNLASGVPDRFSSSGSGTDFTLRISRVEAEDVGVYYCAQNLEIPRTFGGGTKLEIK
notes: CDR3 identical); Murine whole bivalent antibody; source: gift from Dr SO Warnaar (Centocor, Leiden); copies: 2 + 2
Consider B1, for which, in data set [2], the koff was determined as 0.00106 s⁻¹, the kon was 251000 M⁻¹ s⁻¹ and the t1/2 is 10.9 min.

B2: MOC-161 (antibody, V domains shown)
VH: QVQLQQSGTELIRPGTSVKISCKASGYAFTDYWLGWVKHRPGHGLEWIGDIYPGSDNTYYHEKFKGKATLTTDKSSSTAYMQLSSLTSEDSAVYFCARGLKGDYWGQGTTVTVSS
VL: DIQMTQSPSSLSAFSGGKVTITCKASQDIKKSIAWYQHKPGKGPRLLIHYTSTLQPGIPSRFSGSGSGEEYSFSISNLEPEDIATYYCQQYDNLRTFGGGTKLELK
With B2, in data set [3], the binding result is “binds”.

B3: MOC-31 scFv (soluble) (scFv)
scFv: QVQLQQSGPELKKPGETVKISCKASGYTFTNYGMNWVKQAPGKGLKWMGWINTYTGESTYADDFKGRFAFSLETSASAAYLQINNLKNEDTATYFCARFAIKGDYWGQGTTVTVSSGGGGSGGGGSGGGGSDIVLTQSPFSNPVTLGTSASISCRSTKSLLHSNGITYLYWYLQKPGQSPQLLIYQMSNLASGVPDRFSSSGSGTDFTLRISRVEAEDVGVYYCAQNLEIPRTFGGGTKLEIKR
notes: 15-residue (Gly4Ser)3 linker, written out from the printed formula; The screening ELISA of the methods used clones in pCANTAB6 (His6 before c-myc); also called monovalent MOC-31 scFv; source: E. coli TG1, pUC119-polyHIS6myc, periplasm; purified (IMAC on Talon resin, gel filtration, monomer) for SPR; periplasmic preparation for immunohistochemistry; induced bacterial supernatant for ELISA; not …
As for B3, in data set [1], the koff was 0.00034 s⁻¹ and the t1/2 is 34 min. In data set [4], the binding result is recorded as “binds”.

B4: 17-1A antibody (antibody, V domains shown)
VH: QVQLQQSGAELVRPGTSVKVSCKASGYAFTNYLIEWVKQRPGQGLEWIGVINPGSGGTNYNEKFKGKATLTADKSSSTAYMQLSSLTSDDSAVYFCARDGPWFAYWGQGTLVTVSA
VL: NIVMTQSPKSMSMSVGERVTLTCKASENVVTYVSWYQQKPEQSPKLLIYGASNRYTGVPDRFTGSGSATDFTLTISSVQAEDLADYHCGQGYSYPYTFGGGTKLEIK
notes: Murine whole bivalent antibody; also called 17-lA; source: gift from Dr SO Warnaar (Centocor, Leiden); copies: 2 + 2
Turning to B4, in data set [2], the koff amounted to 0.0382 s⁻¹, the kon came out at 595000 M⁻¹ s⁻¹ and the t1/2 worked out at 0.3 min.

B5: chimeric 17-1A (antibody, V domains shown)
VH: QVQLQQSGAELVRPGTSVKVSCKASGYAFTNYLIEWVKQRPGQGLEWIGVINPGSGGTNYNEKFKGKATLTADKSSSTAYMQLSSLTSDDSAVYFCARDGPWFAYWGQGTLVTVSA
VL: NIVMTQSPKSMSMSVGERVTLTCKASENVVTYVSWYQQKPEQSPKLLIYGASNRYTGVPDRFTGSGSATDFTLTISSVQAEDLADYHCGQGYSYPYTFGGGTKLEIK
notes: as the VH of m2 (17-1A); as the VL of m2 (17-1A); Whole bivalent antibody; also called chimeric version of 17-1A; source: gift from Dr SO Warnaar (Centocor, Leiden); copies: 2 + 2
Turning to B5, in data set [2], the koff came to 0.0583 s⁻¹, the kon was 1.09e+06 M⁻¹ s⁻¹ and the t1/2 is 0.2 min.

(Values after paper PMC2063226, “High-affinity recombinant phage antibodies to the pan-carcinoma marker epithelial glycoprotein-2 for tumour targeting” (British Journal of Cancer, 1998).)
